The values that follow come from patent US20170152308A1 (Biogen, published 2017).

Read-outs that look alike come from different tables or passages of the source.

Assay [1] addresses T1, recombinant full-length His-tagged human TDP-43 (2-414) (human, UniProt Q13148 2-414).
T1 construct: Amino terminal His tag, made in E. coli, purified in 8 M urea; also called full length TDP-43; full-length TDP-43
As to the kind of experiment: direct ELISA, coated antigen. Here is the method: (§1) The half maximal effective concentration (EC₅₀) of the human-derived TDP-43-specific antibodies for human TDP-43 and their target target-specificity was determined substantially as described in Example 2 above. Briefly, 96 well microplates (Corning) were coated with recombinant full length TDP-43 (Biogen Idec, USA), Escherichia coli extract and BSA (Sigma, Buchs, Switzerland), diluted to a concentration of 5 μg/ml in carbonate ELISA coating buffer (pH 9.6) overnight at 4° C. […] Non-specific binding sites were blocked for 1 hr. at room temperature with PBS containing 2% BSA (Sigma, Buchs, Switzerland). Human TDP-43-specific antibodies were diluted to the indicated concentrations and incubated 1 hr. at room temperature. Binding was determined using a donkey anti-human IgGγ-specific secondary antibody conjugated with HRP (Jackson ImmunoResearch, USA), followed by measurement of HRP activity in a standard colorimetric assay. EC₅₀ values were estimated by a non-linear regression using GraphPad Prism software (San Diego, USA).

Assay [2] has as its target T1, recombinant full-length His-tagged …. In words: direct ELISA, coated antigen. The method, then: as §1
The source holds these as a separate data set. On the technique in general: In an ELISA, binding on a coated surface is turned into a signal by an enzyme label.

In assay [3] the target is T2, 6xHis-SUMO-TDP-43 (1-414), properly folded full length (human, UniProt Q13148 1-414).
T2 construct: Purified with KSCN and arginine, monomeric; captured on the plate by an anti-6xHis antibody; also called folded full-length TDP-43; 6xHis/SUMO tagged full length TDP-43; not shown: N-terminal 6xHis and SUMO tags from a modified pET19-b vector
T2 sequence (Q13148 whole entry): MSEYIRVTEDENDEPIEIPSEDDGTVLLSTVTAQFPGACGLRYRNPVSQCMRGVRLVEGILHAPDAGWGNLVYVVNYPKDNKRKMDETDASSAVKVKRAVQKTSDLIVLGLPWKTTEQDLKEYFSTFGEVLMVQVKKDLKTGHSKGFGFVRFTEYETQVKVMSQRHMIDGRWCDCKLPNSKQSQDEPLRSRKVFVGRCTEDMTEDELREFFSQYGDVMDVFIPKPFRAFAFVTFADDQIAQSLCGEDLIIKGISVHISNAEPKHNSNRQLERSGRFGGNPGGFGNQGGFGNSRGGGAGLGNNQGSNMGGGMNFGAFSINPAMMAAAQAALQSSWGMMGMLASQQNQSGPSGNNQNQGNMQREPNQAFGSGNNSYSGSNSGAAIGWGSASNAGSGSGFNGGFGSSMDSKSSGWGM
As to the kind of experiment: capture ELISA, antigen held by anti-6xHis antibody. The method, then:
(§2) Non-specific binding sites were blocked for 1 hr at RT with PBS containing 1% BSA (Sigma) and 0.05% Tween-20 (Fisher Scientific). 6×His-SUMO-TDP43 proteins at a concentration of 1.7 μM were allowed to bind to antibody-coated plates for 1 hr at RT in PBS buffer containing 1% BSA, 300 mM arginine and 0.1% PEG 5000, pH 7.5. Plates were incubated for 1 hr at RT with human antibodies of present invention, titrated in a three-fold dilution series, followed by HRP conjugated anti-human IgG Fc γ (Jackson ImmunoResearch) in PBST containing 1% BSA. HRP activity was measured in a standard colorimetric assay. EC₅₀ values were calculated using a four-parameter logistic curve fit on Softmax pro software (Molecular Devices).
(§3) We measured the binding affinity of the human-derived TDP-43 specific antibodies provided herein to properly folded 6×His/SUMO tagged TDP-43 using a capture ELISA in which native TDP-43 was immobilized without direct adsorption on the surface of the ELISA plate. This was achieved by immobilizing an anti 6×His antibody which then captured native TDP-43. […] After this immobilization step, binding by human antibodies was tested in regular buffers without interference of TDP-43 aggregation.

Assay [4] addresses T3, 6xHis-SUMO-TDP-43 (220-414) (human, UniProt Q13148 220-414).
T3 construct: Captured on the plate by an anti-6xHis antibody; also called 6xHis/SUMO tagged truncated TDP-43; not shown: N-terminal 6xHis and SUMO tags from a modified pET19-b vector
In words: capture ELISA, antigen held by anti-6xHis antibody. Here is the method: as §2, §3

Assay [5] has as its target T4, His-huTDP-43 domain I (amino acid residues 2-106) (human).
T4 construct: Amino terminal His-tagged fragment, E. coli; also called N-terminal domain
T4 chain: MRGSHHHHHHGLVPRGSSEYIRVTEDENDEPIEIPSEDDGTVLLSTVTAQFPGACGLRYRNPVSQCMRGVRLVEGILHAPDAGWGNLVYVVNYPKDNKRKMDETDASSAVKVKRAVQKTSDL
In words: direct ELISA, His-tagged TDP-43 fragments coated at 6.6 ug/ml, OD 450. Here is the method: (§4) Non-specific binding sites were blocked for 1 hr. at room temperature with PBST containing 2% BSA (Sigma, Buchs, Switzerland). Antibodies were incubated 1 hr. at room temperature. Binding was determined using either a donkey anti-human IgGγ-specific antibody conjugated with HRP (Jackson ImmunoResearch, USA) or a goat-anti mouse IgG (H+L)-specific secondary antibody conjugated with HRP (Jackson ImmunoResearch, USA)., followed by measurement of HRP activity in a standard colorimetric assay.

In assay [6] the target is T5, His-huTDP-43 domain II (amino acid residues 99-204) (human).
T5 construct: Amino terminal His-tagged fragment, E. coli
T5 chain: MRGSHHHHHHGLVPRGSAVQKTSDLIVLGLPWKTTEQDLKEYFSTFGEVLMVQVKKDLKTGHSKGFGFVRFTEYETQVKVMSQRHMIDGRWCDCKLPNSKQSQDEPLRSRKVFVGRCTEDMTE
Described as above. Here is the method:
as §4

Assay [7] concerns the target T6, His-huTDP-43 domain III (amino acid residues 183-273) (human).
T6 construct: Amino terminal His-tagged fragment, E. coli
T6 chain: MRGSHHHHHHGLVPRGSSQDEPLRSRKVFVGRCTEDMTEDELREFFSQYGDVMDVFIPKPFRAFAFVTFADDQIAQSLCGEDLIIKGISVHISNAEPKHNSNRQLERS
The description is as above. Here is the method:
as §4

In assay [8] the target is T6, His-huTDP-43 domain III (amino acid …). In words: Western blot, 300 ng recombinant protein per lane, primary antibody 10 nM. The method, then: (§5) Non-specific binding sites were blocked for 1 hr. at room temperature with PBST containing 2% BSA (Sigma, Buchs, Switzerland). Blots were incubated overnight with primary antibodies (10 nM) followed by either a donkey anti-human IgGγ-specific secondary antibody conjugated with HRP (Jackson ImmunoResearch, USA) or a goat-anti mouse IgG (H+L)-specific secondary antibody conjugated with HRP (Jackson ImmunoResearch, USA). Blots were developed using ECL and ImageQuant 350 detection (GE Healthcare, Otelfingen, Switzerland).
Background: In western blotting, separated proteins are transferred to a membrane and probed.

Assay [9] addresses T4, His-huTDP-43 domain I (amino acid …). The description is as above. The method, then:
as §5

The target in assay [10] is T5, His-huTDP-43 domain II (amino acid …). Described as above. Here is the method: as §5

T3 sequence (Q13148 220-414): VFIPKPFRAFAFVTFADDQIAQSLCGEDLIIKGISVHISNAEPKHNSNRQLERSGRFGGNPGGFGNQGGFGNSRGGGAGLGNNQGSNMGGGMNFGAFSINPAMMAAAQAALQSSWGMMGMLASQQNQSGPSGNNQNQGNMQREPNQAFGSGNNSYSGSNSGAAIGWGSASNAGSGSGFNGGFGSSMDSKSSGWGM

B1: NI-205.25F3 (antibody, human IgG1, V domains shown)
VH: QVQLVESGGGVVQPGRSLRLSCAASGFTFSNYVMYWVRQAPGKGLEWVAFISYDGSNKYYPDSVKGRFTISRDNSMNTLYLQMDSLRAEDTAVYYCARDTYQYDSSTYYPYFYYYGMDVWGQGTTVTVSS
VL: QSALTQPASVSGSPGQSITISCIGTSSDVGGYNYVSWYQQHPGKAPKLMIYEVSNRPSGVSSRFSGSKSGNTASLTISGLQSEDEADYYCSSFASSSTSVTFGGGTKLTVL
notes: Human-derived
In the case of B1, the concentration for a half-maximal effect (EC50) in assay [1] was 13.3 nM; in [2], 13.3 nM; in assay [3], more than 120 nM; in assay [4] it was more than 100 nM. Also, the binding result in assay [5], in assay [6] and in [7] was “no binding” throughout.

B2: NI-205.31D2 (antibody, human IgG1, V domains shown)
VH: EVQLLESGGGSVQPGGSLRLSCAASGFTFSTYVMSWVRQAPGKGLEWVSAISRRGGSTYYADSVKGRFTISRDNSKNTLYLQMNSLRAEDTAVYYCAKDRWLTGRTGGVFDIWGQGTMVTVSS
VL: not shown
notes: Human-derived
Turning to B2, the EC50 is more than 41 nM in assay [2], 41 nM in [3] and 19.4 nM in assay [4].

B3: NI-205.8A2 (antibody, human IgG1, V domains shown)
VH: QVQLVESGGGVVQPGKSLRLSCAASGFTFRDHGMHWVRQAPGKGLEWVAVIWLDGSSRFYADSVEGRFTISRDNSKNTLYLQLTSLRAEDTAIYYCARDRVASEGTAFDVWGQGTMVTVSS
VL: EIVLTQSPATLSLSPGERATLSCWASQNVNHYLVWYQQRPGQAPRLLLYDTSVRAAGIPARFIGSGSGTHFTLTISSLEPEDSAVYYCQHRSDWTFGQGTKVEIK
notes: Human-derived
Consider B3, for which the EC50 in [1] was found to be 7.2 nM; in assay [2] it was 7.2 nM; in assay [3], 34 nM; in assay [4], 4.6 nM. Further, the binding result in assay [5] was “no binding”; in [8], “no binding (tested: 10 nM)”.

B4: NI-205.8F8 (antibody, human IgG1, V domains shown)
VH: EVQLLESGGGLVQPGGSLRLSCAASGYTFSYYAMSWVRQAPGKGLEWVSTIGDSGSTTHYADSVKGRFTISRDNSKSTLYLQMNSLRAEDTAVYYCAKGLGPVAAIGDYWGQGTLVTVSS
VL: QSVLTQPPSASGTPGQRVTISCSGSSSNIGSNNVYWYQQLPGTAPKLLVYRNNQRPSGVPDRVSGSKSGSSASLAISGLRSEDEADYYCAAWDDSLRGYVFGTGTKVTVL
notes: Human-derived
Regarding B4, the binding result in assay [2] is listed as “no binding”. The molecule also yielded an EC50 in assay [3] of more than 94 nM.

B5: NI-205.15F12 (antibody, human IgG1, V domains shown)
VH: QVQLVQSGTAVKKPGASVKVSCKASGFSFNGYYMHWVRQAPGQGLEWMGVINPNGGSTNYAQKFKGRITMSADTPARSVSMELGSLRSDDTAMYYCARLPVNIEVLDLWGQGTLVTVSS
VL: DIVMTQSPDSLAVSLGERATINCRSSQTVLFSSNDKNYLAWYQQKPGQPPKLLIYWASVRASGVPDRFSGSGSGTDFSLTINGLQAEDVAVYYCQQSSTAPLTFGGGTKVEIK
notes: Human-derived
In the case of B5, the EC50 in assay [1] was 7.2 nM; in assay [2], 7.2 nM; in assay [3], 16.3 nM; in assay [4], 9.7 nM. Moreover, the binding result in assay [9], in assay [10] and in assay [8] was “no binding (tested: 10 nM)” throughout.

B6: NI-205.14H5 (antibody, human IgG1, V domains shown)
VH: EVQLLESGGGLVQPGGSLRLSCAASGFTFRNYAMAWVRQAPGKGLEWVSAIPARGDKTYYADSVRGRFTISRDISKSALYLQMNSLRVEDTAVYYCAKAHHLYNKNFDYWGQGTLVTVSS
VL: EIVLTQSPGTLSLSPGETVTLSCRASQSVSSSNLAWYQQKPGQAPRLLIYGASSRATGIPDRFSGRGSGTDFTLTISRLEPEDFAVYYCQHYGTFGQGTKVDIK
notes: Human-derived
Consider B6, for which the EC50 in [2] and in assay [3] was more than 100 nM each time.

B7: NI-205.36D5 (antibody, human IgG1, V domains shown)
VH: QVQLVESGGGVVQPGRSLRLSCAASRFTFSSYGMHWVRQAPGKGLEWVALIYYDATQKYYADSVKGRFTISRDNSKNALYLQMTSLRADDTAVYYCARDLPYHYHRSASFAPADTWGQGTLVTVSS
VL: EIVLTQSPGTLSLSPGERATLSCRASQTISNNYLAWYQQKPGQAPRLLVYAASSRATGIPDRFYGSGSGADFTLTISRLEPEDFVVYYCQQYGSSPITFGQGTRLEIK
notes: Human-derived
B7: the EC50 is more than 72 nM in [2], more than 72 nM in assay [3] and more than 60 nM in assay [4].

B8: NI-205.10D3 (antibody, human IgG1, V domains shown)
VH: QVQLQESGPGLVKPSETLSLTCTVSGGSITDYYWSWIRQPPGKGLEWIGYIHDSGTTRYNPSLTSRLSMSLDTSTNQVSLRLTSVTAADTAVYYCAKVPDYWGQGTLVTVSS
VL: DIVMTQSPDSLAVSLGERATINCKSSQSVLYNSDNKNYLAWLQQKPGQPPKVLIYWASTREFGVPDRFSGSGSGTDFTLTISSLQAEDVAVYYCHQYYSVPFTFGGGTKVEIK
notes: Human-derived
For the molecule B8, the figures for the EC50 in assay [2], in [3] and in assay [4] were 7.3 nM, more than 90 nM and 20.5 nM, respectively. Also, the binding result in [9], in [10] and in assay [8] was “no binding (tested: 10 nM)” throughout.

B9: NI-205.10H7 (antibody, human IgG1, V domains shown)
VH: QVQLVESGGGVVQPGRSLRLSCAASGFTFSNYAMHWVRQAPGKGLEWVAVIWYDGSKKYYGDSVKGRFTISRDNPKNTLYLQMNSLRVEDTAIYYCVPDAFDMWGQGTMVTVSS
VL: DIVMTQTPLSSPVTLGQPASISCRSSQSLVHTDGKTYLSWLHQRPGQPPRPLIYKMSKRFSGVPDRFSGSGAETEFTLKISRVEAEDVGIYYCLQLTQFPITFGQGTRLEIK
notes: Human-derived
With B9, the EC50 in [2] is 15.3 nM; in assay [3], 30.9 nM; in [4], 6.45 nM. The binding result in assay [9], in [10] and in assay [8] was “no binding (tested: 10 nM)” in each case.

By EC50 is commonly meant the concentration that produces a half-maximal response.
